Assays:
Assay in all cases: ELISA; competition ELISA, KD in solution at equilibrium: serial dilutions of EDIII mixed with antibody at 0.2 nM, incubated overnight; unbound or singly bound antibody measured on Maxisorp plates coated with EDIII-DV1, detected with HRP rabbit anti-human IgG; mass action model adjusted for antibody bivalence
VIS513 = target: VIS513
[1] = target: EDIII domain of the E protein, DENV1 HAW, wild type (Dengue virus type 1, strain Hawaii 1944 …, UniProt A0A097PIH4, strain); conditions: both partners purified
[2] = target: T1, EDIII domain of the E protein, DENV2 NGC, wild type (Dengue virus type 2, strain NGC …, UniProt A0A097PIE2, strain); conditions: both partners purified
T1 construct: also called DENV2 NGC WT; DV2-NGC

[3] = target: EDIII domain of the E protein, DENV3 H87, wild type (Dengue virus type 3, strain H87 …, UniProt A0A0U2UQM7, strain); conditions: both partners purified

EDIII domain of the E protein, DENV1 HAW, K310R (domain or fragment)
Kd (VIS513): 0.39 nM

EDIII domain of the E protein, DENV2 NGC, K310R (domain or fragment)
Kd (VIS513): 0.79 nM

EDIII domain of the E protein, DENV3 H87, K308R (domain or fragment)
Kd (VIS513): 170 nM

EDIII domain of the E protein, DENV3 H87, L301S (domain or fragment)
Kd (VIS513): 1.7 nM

EDIII domain of the E protein, DENV4 BC287, K310R (domain or fragment)
Kd (VIS513): 618 nM

B1: VIS513 (antibody, V domains shown)
VH: QVQLVQSGAEVKKPGASVKVSCKAGFNIKDVYMSWVRQAPEQGLEWMGRIDPENGDTKYDPKLQGRVTMTADTSTNTAYMELRSLRSDDTAVYYCARGWEGFAYWGQGTLVTVSS
VL: DIVMTQSPASLAVSLGQRATISCRASENVDKYGNSFMHWYQQKPGQPPKLLIYRASELQWGVPDRFSGSGSGTDFTLTISSLQAEDVAVYYCQRSNEVPWTFGQGTKLEIK
Kd [1]: < 0.1 nM
Kd [2]: < 0.1 nM
Kd [3]: 1.5 nM
